Assay results reported in the nanobody polyreactivity screen of Harvey et al. (2022).

Test: yeast display, Sf9 membrane polyspecificity reagent, FACS + sequencing; frameworks hold sequencing errors
Procedure, shortened: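 A synthetic nanobody library was expressed on Saccharomyces cerevisiae BJ5465 by galactose induction for 36–48 hours. The library was stained for 1 hour at 4 °C with 10% biotinylated, detergent-solubilized Sf9 membrane reagent and enriched with streptavidin microbeads before FACS. Low and high (top ~1%) gates were set on anti-HA fluorescence for expression and streptavidin fluorescence for reagent binding, and each polyreactivity label reflects the gate of origin.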

Sequence	polyreactivity (PSR sort gate)
QVQLVESGGGLVQAGGSLRLSCAASGRIIKPYAMGWYRQAPGKERELVAAISQSGGRTYYADSVKGRFTISRDNAKNTVYLQMNSLKPEDTAVYYCATRYVSSFGLHAQVWSYYYWGQGTQVTVSS	high polyreactivity
QVQLVESGGGLVQAGGSLRLSCAASGFTFRYYAMGWYRQAPGKERELVAAISWSGGSTYYADSVKGRFTISRDNAKNTVYLQMNSLKPEDTAVYYCNAYAYYSHGVTTTYDYWGQGTQVTVSS	high polyreactivity
QVQLVESGGGLVQAGGSLRLSCAASGFIFWWYAMGWYRQAPGKERELVATITASVGSTNYADSVKGRFTISRDNAKNTVYLQMNSLKPEDTAVYYCATDIIGAIRDWDHTRMDYWGQGTQVTVSS	low polyreactivity
QVQLVESGGGLVQAGGTLRLSCAASGSTFAVNAMGWYRQPPGKERELVAAISRSGGSTYYADSVKGRFTISRDNAKNTDYLQMKSLKPEDTAFYYCNTRTPYWFKSDYWGQGTQVTVSS	low polyreactivity
QVQHVESGGGLVQAGGSLRLSCAASGIIFYWYAMGWYRQAPGKERELVAAISRTGGSTYYADSVKGRFTISRDNAKNTVYLQMNSLKPEDTAVYYCAADDGGYWSAGHEYWGQGTQVTVSS	high polyreactivity
QVHLVESGGGLVQAGGSLRLSCAASGSIFGPYVMGWYRQAPGKEREFVAAIRGSGGSTYYADTVKGRFTISRDNAKNTVYLQMTSLKPEDTAVYYCNASLKYTLYYYWGQGTQVTVSS	high polyreactivity
QVQLVESGGGLVQAGGSLRLSCAASGFTFFNYAMAWYRQAPGKERELVAAISSNGGRTYYADSVKGRFTISRDNAKNTVYLQMNSLKPEDTAVYYCATLYYGRVDYDYWGQGTQVTVSS	high polyreactivity
QVQLVESGGRIVQAGGSLRLSCAASGIIFYLYTMGWYRQAPGKERQFVADISSGTTTYYADSVKGRFTISRDNAKNTVYLQMNSLKPADSAVYYCAAQLFRELYWGQGTQVTVSS	high polyreactivity
QVQLVESGGCLVQAGGSLRLSCAASGLIFYGYAMGWYRQAPGKERELVAAITSGGSTNYADSVKGRFTISRDNAKNTVYLQMNSLKPEDTSFYYCNADVIYYYRAYPVYEYDYWGQGTQVTVSS	low polyreactivity
QVQLVESGGGLVQPGGSLRLSCAASGRIFKRNAMGCYRQAPGKERELVAAITWRGGSTYYADSVKGRFTISRDNAKNTVYLQMKSMKPEDTAVYYCNVGYGGSSDGGYDYWGHGTQVTVSS	high polyreactivity
QVQLVESGGGLVQAGGSLRLSCAASGSTLSHYAMGWYRQAPGKERELVAAINSNGGSTYYADSVKGRFTISRDNAKNTVYLQMNSLKPEDTAVYYCKTYFRYFSFYGRPFDYWGQGTQVTVSS	high polyreactivity
QVQLVESGGGLVQAGGSLRLSCAASGRTFKYYAMGWYRQAPGKERELVAAISSGGSTYYADSVKGRFTISRDNAKNTVYLQMNSLKPEDTAVYYCAAYSSYFRRRKWGYDYWGQGTQVTVSS	high polyreactivity
QVQLVESGGGLVQAGGSLRLSCAASGSIFDYNAMGWYREAAGKEREFVASITYSGGSTNYADSVKGRFTISRDNAKNTVYLQMNSLKPEDTAVYYCSKTIGIVWIYYPGARYEDWGQGTQVTVSS	low polyreactivity
QVQLVESGGGLVQAGGSLRLSCAASGRTFSVNAMGWYRQAPGKEREMVAAITSGASTNYADSVKGRFTISRDNAKNTVYLQMNSLKPEDTAVYYCAADATYGHVPAEYDYWGQGTQVTVSS	low polyreactivity
QVQLVESGGGLVQAGGSLRLSCAASGFTFPRNAMGCYRQAPGKERELVAGISKSGGSTYYADSVKGRFTISRDNAKNTVYLQMNSLKPEDTAVYYCAKAVNSPRKYQLGNGYWGQGTQVTVSS	high polyreactivity
QGQLVESGGGLVQAGGSLRLSCAASGSIFPGYTMGWYRQAPGKERELVAVISSDGRTHYADSVKGRFTISRDNAKNTVYLQMNSLKPEDSAVYYCAAAKRAYGYVLHAFYYWGQGTQVTVSS	high polyreactivity
QVQHVESGGGLVQAGGILRLSCAASGFTFPAYTMGWYRQAPGKERELVAAITSSGGNTYYADSVKGRFTISRDNAKNTLCLQMNSLKPEDTAVYYCATVSVRWPSNDHVRYDYWGQGTQVTVSS	low polyreactivity
QVHLVESGGGLVQAGGSLRLSSAAYGGIFDDNAMGWYRQAHGKERELVAAISSSGGSTYYADSVKGRFTISRDNAKYTVYLQMNSLKPEDTAVYYCNADRRRRFGYWGQGTQVNVSS	high polyreactivity
QVQLVESGGGLVQAGGSLRLSCAASGRIVGRNAMGWYRQAPGKERELVAAISSGGGRTYYADSVKGRFTISRDNAKNTVYLQMNSLKPEDTAVYYCNAGWRGRFYYWGQGTQVTVSS	high polyreactivity
QVQLVESVGGLVQAGGSLRLSCAASGFTFSSYSMGWYRQAPGKERELVAAITISGGRTYYADSVKGRFTISRDNAKNTVYLQMNSLKPEDTAVYYCAARYVEGQNHYGYRGQGTQVTVSS	high polyreactivity
QVQLVESWGGLVQAGGSLRLSCAASGSIFSPYAIGWYRQAPGKERELVAAISFRASTTYYADSVKGRFTITRDNAKNTVYLQMNSLKPEDTAVYYCAASPLYSWFWGLYDYWGQGTQVTVSS	low polyreactivity
AVQLVESGGGLVQAGGSLRLSCAASGSIFPWYTMGWYRQAPGKERELVASITKSGARTYYADSVKGRFTISRDNAKNTVYLQMNSLKPEDTAVYYCAAVYPVWKYHYAYWGQGTQVTVSS	high polyreactivity

Sequence	polyreactivity (PSR sort gate)
QVQLVESGGGLVQAGGSLRLSCAASGSTSCSNAMGWSRQAPGKERELVAAITTGASTYYADSVKGRFTISRDNAKNTVYLQMNSLKPEDTAVYYCAADPWVLWSYYYWGQGTQVTVSS	low polyreactivity
QVQLVESGGGLVQAGGSLRLSCAASGFIFVHNAMGWYRQAPGKERELVATISRRGGSTYYADSVKGRFTISRDNAKNTVYLQMNILKPEDTAVYYCAARTYGYYLYDYWGQGTQVTVSS	high polyreactivity
QVQLVESGGGLVQAGGSLRLSFAASGGTFRPYAMGWYRQAPGKETELVATIRSSGGRTYYADSVKGRFTISRDNAKNTVYLQMNSLKPEDTAVYYCAKRAQTYYGYDYWVQGTQVTVSS	high polyreactivity
QVQLVESGGGLVQAGGSLRLSCAASGGIFNYYVMGWYRQAPGIERELVAAISNGGSPNYADSVKGRFTISRDNAKNPVYLQMNSLKPEDTAVYYCAAHTYSELSWLVVYPYDYWGQGTQVTVSS	low polyreactivity
QVQLVESGGGLVQAGGSHRLRCAASGRIFWSNTMGWYRQAPGKERELVAAISGRGGSTYYADSVKGRFTISRDNAKNTVYLQMNSLKPEDTAVYYCAARYPAYYEAYDYWGQGTQVTVSS	low polyreactivity
QVQLEESGGGLVQAGGSLRLSCAASGRIFSPNVRGWYRKATGKERELVAGITSSGGSTYYADSVKGRLTISRDNAKNTVYLQMNSLKPEYTAVYYCAAPWVGTFVSGRGYYWGQGTQVTVSS	low polyreactivity
QVQLVESGGGLVQAGGSLRLRCAASGRIFGLYAMGWYRQAPGKERQLVAAISRGGGSTYYADSVKGRFTISRDNAKNTVYLQMNSLNPEDTEVYYCATGLGYFSRLDYCGQGTQVTVSS	low polyreactivity
QVQHVESGGGLVQAGGSLRLSCAASGSTFTYNAMGWYRQAPGKEREKVASISSGTTTYYADSVKGRFTISRDNAKNTVYLQMNSLKPEDTAVYYCAVDSWSRVQGWLAHNYDYWGQGTLVTVSS	low polyreactivity
QVQLQESGGGLVQAGGSLGCAASGNISTRSEMGWYRQSPGKEREFVATINSGGITNYADSVKGRFTISRDNAKNTVYLRMNSLKPEDTAVYYRAVYGYFSDPYDYWGQGTQVTVSS	low polyreactivity
QVQLVESGGGLVQAGGSLRLSCAASGSTFRSYTMGWYRQAPGKERELVADINGTGGSTYYADSVKGRFTISRDNAKNTVYLQMNSLKPEDTAVYYCAADGYFRTVTSGWALRMGYWGQGTQVTVSS	high polyreactivity
QVQLVESGGGLVQAGGSLRLICAASGSIFDKYARGWYRQEPGKERELVAAIDSGDTYYADSVKGRFTISRDNAKNTVYLQMNSLKPEDTAVYYCAADDVQYEYDYWGQGTQVTVSS	low polyreactivity
QVQLVESGGGLVQAGGSLRLSCAASGAIFQPYGMGGYSQAPGKERELVAAISRGGTTYYADSVTGRFTISRANAKNTDYLQMNSLKPEETAVYYCAVKGYRYGTRYDYRGQGTQVTVSS	high polyreactivity
QGQLVESGGGLVQAGGSLLLSCAASGRTFYNYYTMGLYRQAPGKERELVAAISRSGSTNYADSVKGRFTISRDTAKNTVYLQMNSLKPEDTAVYYCARSYRSDGSRFGYWGQGTQVTVSS	low polyreactivity
QVQLVESGGGLVQAGGSLRLSCAASGSIFDGYAMGWYRQAPWKERELVAAISYTGGRKYYADSVKGRFTISRDNAKNTVYLQMNSLKPEDTAVYYCAARYHLGRSPRYYRGQGTQVTVSS	high polyreactivity
QVQLVESGGGLVQAGGSLRLSCAASGRTFYSYAMGWYIQAPGKERELVATINRGSGTNYADSVKGRFTISRDNAKNSVYLQMNSLKPEDSAVYSCAVDRRVLWYHMDYWGQGTKVTVSS	high polyreactivity
QVQLVESVGRLVQAGGSLRLSCAASGRIIYWNAKGWYRQAPGKERELVAGITTGGSTYYADSVKGRFTISRDNAKNTVYLQMNSLKPEDTAVYYCAARPFIRQRYGYWGKGTQVTVSS	high polyreactivity
QVQLVESGGGLVQAGGSLRLSCAASGRTFAYNAMGWYRQAPGKERELVAAISRSGGSTYYADSVKGRFTISRDNAKNTVYLQMNSLKPEDTAVYYCNKVTHSYLYFAAGDYWGLGTQVTVSS	high polyreactivity
QVQLVESGGGLVQAGGSLRLSCAASGSIFDDNAMGWYRQAPGKERELVATINYGGGRTSYADSVKGRSTISRDNAKNTVYLQMNSLKPEDTAVYYCAADPRQKEDYWGQGTQVTVSS	low polyreactivity
QVQLVESGGGLVQAGGSLRLSCAASGRIFAYYAMGWYRQAPGKERELVAAISSSGVSTSYADSVKGRFTISRDNAKNTVYLQMNSLKPEDTAVYYCAASPGGRPYFNHDSWGQGTQVTVSS	low polyreactivity
QVQLVESGGVLVQAGGSLRISCAASGSTFYSYDMGWYRQAPGKERELVAAISSSSGSTYYADSVKARFTISRDNAKNTVYLQMNSLKPEDTAVYYCKRGRRYSHKYDYWGQVTQVTVSS	high polyreactivity
QVQLVESGGGLVQAGGSLRLSCAASGRTFGVYAMGCYRQAPGKERELVAGIRWRGGSTYYADSVKGRFTNSRDNAKNTVYLQMNSLKPEDTAVYYCAADVYLVKYDYWGQGTQVTVSS	low polyreactivity
